Series [1] deals with MS2 coat protein. Briefly: apparent KD of MS2 coat protein, switch OFF state (with FMN for OFF switches, without FMN for ON switches); designed switch direction (-1 OFF switch, 1 ON switch): 1; higher = weaker reporter binding. Conditions: FMN input: 0 or 200 uM; Eterna round: R93 (includes R88 designs). In short, it runs like this: (§1)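 Apparent KD per design is the median of normalised cluster binding-curve fits. Designed RNA switches transcribed on-chip from Illumina sequencing clusters were titrated with SNAP-549-labelled MS2 coat protein in twofold steps from 0.7 or 1.5 nM to 3 µM, with 0.8–1.5 h down to 10–20 min per step. Buffer: 100 mM Tris-HCl pH 7.5, 80 mM KCl, 4 mM MgCl2, without or with constant ligand.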

Series [2] has as its system MS2 coat protein. The series can be described thus: apparent KD of MS2 coat protein, switch ON state; designed switch direction (-1 OFF switch, 1 ON switch): 1; higher = weaker reporter binding. The note with it: FMN input: 0 or 200 uM; Eterna round: R93 (includes R88 designs). In short, it runs like this: as §1

Take “AAAAUACAUGAGGAUCACCCAUGUGAGUCGAACGCAGGAUAUGCCCGUUGAAAAGGGCGGGCAGAAGGGUGCCGAA [SameState1-IV]”: the “apparent KD of MS2 coat protein” value was 61.7 nM in series [1] and 34.4 nM in series [2].
The corresponding values for “AAAAUAUAAAGAGAGGAUAUCCAAAGAACCACAUGAGGAUCACCCAUGUAAAGAAAGAAUAAGUGGGAGAAGGCUCAAAUAAUAA [Designing denovo 24]” are 99.8 nM and 27.5 nM.
Taken in the same sequence, the figures for “AAAAUAUAAAGGAAGGAUAUCCAAAGGACUACAUGAGGAUCACCCAUGUAAAGAAAGAAUAAAUGGGAGAAGGUCCAAAUAAUAA [Designing denovo 32]” were 180 nM and 44 nM.
As to “AAACCACAUGAGGAUCACCCAUGUAAAAAUAACGCAGGAUAUGGAAACACGAAAGUGAAACCAGAAGGGUGAAAAG [77%, Mat - Mod of Eli, 15]”, the “apparent KD of MS2 coat protein” value in series [1] is 33 nM; in series [2], 24.5 nM.
“AAACCACAUGAGGAUCACCCAUGUAAGAUAUACAUAGGAUAUGCGAAAAGAAACAAAGAAGCAGAAGGGUGGAAAA [75%, Ex sub1, 15]”: the entries for the “apparent KD of MS2 coat protein” value in series [1] and in series [2] were 54.9 nM and 100 nM, respectively.
In the case of “AAACCACAUGAGGAUCACCCAUGUAGAAAUAUGGGAGGAUAUACAAACACGAAAGUGAAAGUAGAAGGCCUAAAAG [77%, Mat - Mod of Eli, 7]”, the “apparent KD of MS2 coat protein” value in series [1] is 118 nM; in series [2] it was 17.7 nM.
In the case of “AAAGACACGGUGCAGGAUAUAGUAAUAGUCACAUGAGGAUCACCCAUGUUCUUUUAUAAGAACGAUUAGAAGGGCGGUGAAAAAA [SameState2 Malc#10]”, the “apparent KD of MS2 coat protein” value in series [1] amounted to 92.6 nM; in series [2], 182 nM.
Taken in the same sequence, the figures for “AAAGACACGGUGCAGGAUAUAUUAAUAGUCACAUGAGGAUCACCCAUGUUCAUUUAUAUGAACGAGUAGAAGGGCGGUGAAAAAA [SameState2 Malc#8]” were 110 nM and 174 nM.
Taken in the same sequence, the figures for “AAAGACAUAGUGCAGGAUAUGGUAAUAGUCACAUGAGGAUCACCCAUGUUCUUUUAUAAGAACGAUCAGAAGGGCGGUAAAAAAA [SameState2 Malc#13]” were 666 nM and 359 nM.
The corresponding values for “AAAGACAUAGUUCAGGAUAUGGUAAUAGUCACAUGAGGAUCACCCAUGUUCUUUUAUAAGAACGAUCAGAAGGGAGGUAAAAAAA [SameState2 Malc#14]” are 282 nM and 151 nM.
In the case of “AAAGACGUGGUGUAGGAUAUACUAAUAGUCACAUGAGGAUCACCCAUGUUCAUAUAUAUGAACGAGUAGAAGGACGACGAAAAAA [SameState2 Malc#2]”, the results for the “apparent KD of MS2 coat protein” value in series [1] and in series [2] were 95.8 nM and 70.4 nM, respectively.
For “AAAUAAAAGACUAAGGAUAUGUCGCAUGACACAUGAGGAUCACCCAUGUGGUAACACAGAGGGUGGCAGAAGGUAGUCAAAAAAC [Mod 1 of Pariah 6 (Round1) by Hyphema]”, the entries for the “apparent KD of MS2 coat protein” value in series [1] and in series [2] were 446 nM and 45.8 nM, respectively.
The corresponding values for “AAAUAAAUAAGAGAGGAUAUGUCAGAGAAAACAUGAGGAUCACCCAUGUAAUAAUAAAAAGGGUGACAGAAGGCUCAAAACAAAC [Hyphema modified]” are 58.5 nM and 32.3 nM.
“AAAUAAAUGACUAAGGAUAUAUCGAAGAAGACAUGAGGAUCACCCAUGUAAUAAUAAAAAGGGUGGUAGAAGGUAGUCAACAAAC [Mod 6 of Pariah 4 by Hyphema in Round 1]”: the figures for the “apparent KD of MS2 coat protein” value in series [1] and in series [2] were 233 nM and 156 nM, respectively.
The corresponding values for “AAAUAAAUGACUGAGGAUAUAUCGAUGAAUACAUGAGGAUCACCCAUGUGAUAAUAAAAAGGGUGGUAGAAGGUAGUCAACAAAC [Mod 13 of Pariah 4 by Hyphema in Round 1]” are 71.9 nM and 95.9 nM.

These data come from the supplement of paper PMC9170038.
